Blank lines part the entries; values can stand above or below the substance they belong to.
What was measured:
[1] = molecular target: growth differentiation factor 5 (GDF5), wild type (UniProt P43026); experiment: SPR; ProteOn XPR36; BMP2 (570 RU), GDF5 (470 RU), TGF-β2 (300 RU) or activin A (350 RU) amine-coupled to a GLC sensor chip; analyte perfused (RGMB 50 to 1.56 nM at 150 or 100 µl/min; BMPR1A 1000 to 31.25 nM at 100 µl/min); 20 mM HEPES pH 7.4, 500 mM NaCl, 3.4 mM EDTA, 0.005% (v/v) Tween 20; 25 °C; Langmuir 1:1 kinetic fit (parameters local for RGMB), Kd = koff/kon; apparent
Target sequence in this assay (P43026 28-501): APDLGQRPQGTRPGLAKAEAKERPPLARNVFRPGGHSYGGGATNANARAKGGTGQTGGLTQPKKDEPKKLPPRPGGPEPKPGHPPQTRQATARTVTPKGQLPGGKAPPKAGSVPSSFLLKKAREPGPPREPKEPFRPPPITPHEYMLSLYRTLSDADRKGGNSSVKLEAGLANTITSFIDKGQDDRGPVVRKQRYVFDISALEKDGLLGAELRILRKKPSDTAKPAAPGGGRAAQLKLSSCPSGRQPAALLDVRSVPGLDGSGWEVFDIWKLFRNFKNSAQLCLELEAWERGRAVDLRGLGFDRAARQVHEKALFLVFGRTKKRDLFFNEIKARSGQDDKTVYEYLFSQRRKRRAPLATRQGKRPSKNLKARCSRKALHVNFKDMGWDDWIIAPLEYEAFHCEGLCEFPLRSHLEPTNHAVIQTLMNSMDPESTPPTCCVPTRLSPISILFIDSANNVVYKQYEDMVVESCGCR

[2] = molecular target: growth differentiation factor 5 (GDF5), wild type (UniProt P43026); experiment: SPR; BMPR1A with BMP2, GDF5 and GDF5 variants; set-up not told for this pair in the main text (values in the discussion, SI Appendix Table S1); taken as the ProteOn set-up with immobilized ligands
Target sequence in this assay (P43026 382-501): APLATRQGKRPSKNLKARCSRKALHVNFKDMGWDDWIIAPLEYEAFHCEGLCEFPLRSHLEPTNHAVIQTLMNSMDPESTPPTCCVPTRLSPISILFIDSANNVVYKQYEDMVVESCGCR

[3] = molecular target: bone morphogenetic protein 2 (BMP2) (UniProt P12643); experiment: SPR
[4] = molecular target: growth differentiation factor 5 (GDF5), wild type (UniProt P43026); experiment: SPR; Biacore T200, 25 °C; GDF5 amine-coupled to a CM5 chip (830, 970 or 1370 RU); RGMBND variants or BSA as analytes; 0.5 M NaCl, 20 mM HEPES pH 7.4, 0.05% (v/v) Tween 20; Kd from the dose-dependency of equilibrium binding, 1:1 Langmuir isotherm
Target sequence in this assay (P43026 28-501): as the sequence (P43026 28-501) above

[5] = molecular target: bone morphogenetic protein 2 (BMP2) (UniProt P12643)
[6] = molecular target: growth differentiation factor 5 (GDF5), wild type (UniProt P43026); experiment: SPR; ProteOn XPR36; BMP2 (570 RU) or GDF5 (470 RU) amine-coupled to a GLC sensor chip; ActR2b ectodomain perfused at 6 µM to 187.5 nM, 100 µl/min; 0.005% (v/v) Tween 20 buffer; Kd from the dose-dependency of equilibrium binding, one-site model; apparent
Target sequence in this assay (P43026 28-501): as above

[7] = molecular target: growth differentiation factor 5 (GDF5), wild type (UniProt P43026)
Target sequence in this assay (P43026 382-501): as the sequence (P43026 382-501) above

[8] = molecular target: bone morphogenetic protein 2 (BMP2) (UniProt P12643); experiment: SPR; ProteOn XPR36, 25 °C; BMP/TGF-β ligands immobilized on GLC chips by amine coupling, RGM proteins as analytes; 10 mM Hepes pH 7.4, 500 mM NaCl, 3.4 mM EDTA, 0.005% Tween20; 1:1 Langmuir kinetic fit, Kd = koff/kon; apparent Kd
[9] = molecular target: growth differentiation factor 5 (GDF5), wild type (UniProt P43026); experiment: as above
Target sequence in this assay (P43026 382-501): as above

Sequence of bone morphogenetic protein 2 (BMP2) (P12643 283-396): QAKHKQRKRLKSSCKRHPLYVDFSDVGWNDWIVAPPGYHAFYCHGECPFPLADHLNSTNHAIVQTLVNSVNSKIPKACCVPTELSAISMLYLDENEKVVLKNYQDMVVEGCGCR
Sequence of BMPR1A ectodomain protein (residues Gln24 to Arg152) (P36894 24-152): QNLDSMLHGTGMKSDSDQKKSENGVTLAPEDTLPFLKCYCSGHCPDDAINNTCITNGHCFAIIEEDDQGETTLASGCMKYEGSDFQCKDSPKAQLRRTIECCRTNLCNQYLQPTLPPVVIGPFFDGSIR
Sequence of murine activin type-2 receptor ActR2b, soluble ectodomain (residues Gly20 to Glu127) (P27040 20-127): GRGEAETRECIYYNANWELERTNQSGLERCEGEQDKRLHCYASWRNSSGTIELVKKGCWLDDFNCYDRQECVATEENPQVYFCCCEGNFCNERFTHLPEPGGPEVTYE

Substance: BMPR1A extracellular domain (BMPR1AECD, Thr55–Val141) (receptor)
Kd [2]: 125 nM | Kd [3]: 59 nM

Substance: soluble RGMA extracellular domain (RGMAECD) for the ProteOn SPR studies (from UniProt Q96B86 48-424) (domain or fragment)
GDF5 (30 nM) BMP-responsive luciferase reporter in LLC-PK1 cells expressing full-length membrane-anchored RGMA [7]: 2 fold

Substance: soluble RGMB extracellular domain (RGMBECD) for the ProteOn SPR studies (from UniProt Q6NW40 46-413) (domain or fragment)
Kd [8]: 4.2 nM | Kd [9]: 2.7 nM

Now from value to substance:

koff [1]: 0.0048 s⁻¹ | kon [1]: 90000 M⁻¹ s⁻¹
Substance: BMPR1A ectodomain protein (residues Gln24 to Arg152) (from UniProt P36894 24-152) (receptor)

Kd [4]: > 200000 nM
Substance: RGMBND His106Arg (domain or fragment)

BMP2 (3 nM) BMP-responsive luciferase reporter in LLC-PK1 cells expressing full-length membrane-anchored RGMB [5]: 3 fold
Substance: extracellular domain of human RGMB (RGMBECD, Gln53–Ser411) (domain or fragment)

Kd [6]: 1300 nM
Substance: murine activin type-2 receptor ActR2b, soluble ectodomain (residues Gly20 to Glu127) (from UniProt P27040 20-127)

GDF5 (30 nM) BMP-responsive luciferase reporter in LLC-PK1 cells expressing full-length membrane-anchored RGMC [7]: 2 fold
Substance: soluble RGMC extracellular domain (RGMCECD) for the ProteOn SPR studies (from UniProt Q6ZVN8 36-400) (domain or fragment)

Reference: paper PMC7354924
